Experimental data: patent US20150218594A1, “CELL-FREE AND MINIMIZED METABOLIC REACTION CASCADES FOR THE PRODUCTION OF CHEMICALS” (CLARIANT PRODUKTE (DEUTSCHLAND) GMBH, priority 2012, published 2015)
Read-outs that look alike come from different tables or passages of the source. Marks after values point to notes of the source that are not given here.

How the values were obtained:
[1] = KDGA activity in cleavage direction (HPLC); assay type: biochemical; settings: natural substrate
Experimental: (J. Mol. Catal. B-Enzym. 2009, 61, 30-35).
KDGA activity: KDGA activity was followed in cleavage direction at 50° C. Reaction mixture contained 50 mM HEPES (pH 7), 0.1 mM thiamine pyrophosphate, 2.5 mM MgCl2, 20 U PDC and 10 mM KDG. KDG cleavage was followed by HPLC as described below.
Sample volume was 10 μl in each case.

[2] = Ethanol tolerance of enzymes (E50); assay type: biochemical; settings: 60° C.
[3] = Isobutanol tolerance of enzymes (I50); assay type: biochemical
[4] = cited from earlier work
[5] = Enzyme half-life at 50° C.
[6] = Determination of specific activity of purified TaALDH variants; assay type: biochemical; settings: purified enzyme, 1 mM D-Glyceraldehyde, 50° C., pH 7
Excerpt: The Ta-aldh gene was cloned in pCBR-Chis expression vector as described above. Mutations F34L, F34M, Y399C, S405C and S405N were inserted into Ta-aldh gene by Quickchange PCR as described above. For recombinant expression, E. coli BL21 (DE3) was transformed with pCBR-Ta-aldh-Chis, pCBR-Ta-aldh-f34I-s405c-Chis, pCBR-Ta-aldh-f34m-s405n-Chis or pCBR-Ta-aldh-f34m-y399c-s405n-Chis. Each of the four variants was produced using the following protocol:
Large amounts of a TaALDH-Variant were produced with fed-batch fermentation in a 40 L Biostat Cplus bioreactor (Sartorius Stedim, Goettingen, Germany). Defined media was supplemented with 30 μg/ml kanamycin. After inoculation cells were grown at 30° C. for 24 h and induced with 0.3 mM IPTG. Enzyme expression was performed at 30° C. for 3 h. One fermentation produced 300 g cells (wet weight). Cells were harvested and lysed with Basic-Z Cell Disruptor (Constant Systems, Northants, UK) in loading buffer (200 mM NaCl; 20 mM Imidazol; 2.5 mM MgCl2; 50 mM NaPi, pH 6.2). After heat treatment at 50° C. for 30 min, cell debris and protein aggregates were separated from soluble fraction by centrifugation at 30,000 g at 20° C. for 30 min (Sorvall RC6+, SS-34 rotor, Thermo Scientific).
Soluble fraction of His-tagged TaALDH-Variant was further purified by Ni-NTA chromatography using ÄKTA UPC-900 FPLC-system (GE Healthcare, Freiburg, Germany). Supernatant was loaded on HiTrap FF-column and washed with two column volumes of loading buffer. Highly purified and concentrated TaALDH was fractioned after elution in imidazole buffer (200 mM NaCl; 500 mM imidazol; 50 mM NaPi, pH 6.2). Buffer was changed to 20 mM (NH4)HCO3 with HiPrep 26/10 Desalting column and TaALDH was lyophilized with an Alpha 2-4 LD Plus freeze dryer (Martin Christ GmbH, Osterode am Harz, Germany).
TaALDH activity was determined spectrophotometrically at 50° C. by measuring the rate of cofactor reduction at 340 nm in flat bottom microtiter plates (Grainer BioOne) with a Fluorostar Omega Photometer (BMG Labtech GmbH, Ortenberg, Germany). One unit of activity was defined as reduction of 1 μmol of cofactor per minute.

[7] = Screening of TaALDH variants, relative activity under standard conditions (2 mM NAD); assay type: biochemical; settings: for 2 mM NAD (mU/mL): 1 mM D-glyceraldehyde, 50° C., pH 7, lysate supernatant; for relative to wt: mU/mL values normalized to the wildtype control value
Experimental: (§1) Colonies of E. coli BL21 (DE3) containing Ta-ALDH library were transferred into 96-deepwell plates (Gainer BioOne) containing Zym5052 autoinduction medium (Protein Expression and Purification, 2005. 41(1): p. 207-234). Cultures were grown over night at 37° C., 1000 rpm. Cells were harvested by centrifugation at 5000 g at 2° C. for 2 min and lysed with B-Per® protein extraction reagent (Thermo Fisher Scentific, Rockford, USA). After incubation for 60 min at 50° C., insoluble cell debris and was removed by centrifugation at 5000 g at 20° C. for 30 min. Supernatants containing variants of TaALDH were tested for relative activity under standard conditions: 2 mM NAD, 1 mM D-glyceraldehyde in 50 mM HEPES (pH 7) at 50° C. After 20 min NADH formation was detected spectrophotometrically at 340 nm.
(§2) The values “relative to wt” are the mU/mL values normalized to the wildtype control value.

[8] = Cofactor acceptance of Ta-ALDH variants (10 mM NAD); assay type: biochemical; settings: for 10 mM NAD (mU/mL): 1 mM D-glyceraldehyde, 50° C., pH 7; for 10 mM NAD (mU/mL) / relative to wt: 10 mM NAD; for relative to wt: normalized to the wildtype control value; for 10 mM NAD /2 mM NAD: ratio of activity at 10 mM NAD to 2 mM NAD
Experimental: as §1
Change in cofactor acceptance of Ta-ALDH variants was tested under standard assay conditions but with 10 mM NAD. After 20 min NADH formation was detected and compared to relative activity.
as §2

[9] = Activity in solvents of Ta-ALDH variants (3 % isobutanol); assay type: biochemical; settings: for 3 % isobutanol, 2 mM NAD (mU/mL): 50° C., pH 7; for 3 % isobutanol, 2 mM NAD (mU/mL) / relative to wt: 3 % isobutanol, 2 mM NAD; for relative to wt: normalized to the wildtype control value; for Stab. rel to wt: stability in 3 % isobutanol relative to wildtype
Experimental: as §1
Activity in solvents of Ta-ALDH variants was tested under standard assay conditions containing additional solvent. After 20 min NADH formation was detected and compared to relative activity.
as §2

Molecule	Activity, 50° C. [1] [U/mg]	E50: Ethanol concentration which causes loss of 50% activity [2]	I50: Isobutanol concentration which causes loss of 50% activity ([3]; 60° C., above solubility)	activity in a two-phase isobutanol/water system ([3]; two-phase system forms at product titers above 12% (v/v))	T-Optimum ([4]; Table 1, value with literature reference)	T-Optimum ([4]; Table 2, value with literature reference)	Half-life, 50° C. [5] [h]	specific activity (U/mg) at 2 mM NAD [6] [U/mg]	2 mM NAD (mU/mL) [7] [mU/mL]	relative to wt [7]	10 mM NAD (mU/mL) [8] [mU/mL]	relative to wt [8]	10 mM NAD /2 mM NAD [8]	3 % isobutanol, 2 mM NAD (mU/mL) [9] [mU/mL]	relative to wt [9]	Stab. rel to wt [9]
KDGA: 2-Keto-3-deoxygluconate aldolase KDGA (EC 4.1.2.14), Sulfolobus acidocaldaricus, Seq ID 06 (protein, listed as Sulfolobus acidocaldarius) MEIISPIITPFDKQGKVNVDALKTHAKNLLEKGIDAIFVNGTTGLGPALSKDEKRQNLNALYDVTHKLIFQVGSLNLNDVMELVKFSNEMDILGVSSHSPYYFPRLPEKFLAKYYEEIARISSHSLYIYNYPAATGYDIPPSILKSLPVKGIKDTNQDLAHSLEYKLNLPGVKVYNGSNTLIYYSLLSLDGVVASFTNFIPEVIVKQRDLIKQGKLDDALRLQELINRLADILRKYGSISAIYVLVNEFQGYDVGYPRPPIFPLTDEEALSLKREIEPLKRKIQELVH	4	15 (60° C.) % v/v	>12 (60° C.)^b % v/v	remains completely active	99^[1] 50 °C	99^[1] ° C.	>24	–	–	–	–	–	–	–	–	–
F34L S405C: optimized Thermoplasma acidophilum aldehyde dehydrogenase with the mutations F34L and S405C (protein, TaALDH-F34L-S405C-Chis) MDTKLYIDGQWVNSSSGKTVDKYSPVTGQVIGRLEAATRDDVDRAIDAAEDAFWAWNDLGSVERSKIIYRAKELIEKNRAELENIIMEENGKPVKEAKEEVDGVIDQIQYYAEWARKLNGEVVEGTSSHRKIFQYKVPYGIVVALTPWNFPAGMVARKLAPALLTGNTVVLKPSSDTPGSAEWIVRKFVEAGVPKGVLNFITGRGSEIGDYIVEHKKVNLITMTGSTATGQRIMQKASANMAKLILELGGKAPFMVWKDADMDNALKTLLWAKYWNAGQSCIAAERLYVHEDIYDTFMSRFVELSRKLALGDPKNADMGPLINKGALQATSEIVEEAKESGAKILFGGSQPSLSGPYRNGYFFLPTIIGNADQKSKIFQEEIFAPVIGARKISSVEEMYDLANDCKYGLASYLFTKDPNIIFEASERIRFGELYVNMPGPEASQGYHTGFRMTGQAGEGSKYGISEYLKLKNIYVDYSGKPLHINTVRDDLFQSGRPVLGSSHHHHHH	–	–	–	–	–	–	–	1	15.23	5.3	46.83	3.9	0.7	8.17	5.1	1.0
wildtype (wt): Aldehyde Dehydrogenase ALDH (EC 1.2.1.3), Thermoplasma acidophilum, Seq ID 08, wildtype, non-optimized enzyme (protein, Aldehyde Dehydrogenase (EC 1.2.1.3), Thermoplasma acidophilum, wildtype enzyme Protein sequence including C-terminal His-Tag) MDTKLYIDGQWVNSSSGKTVDKYSPVTGQVIGRFEAATRDDVDRAIDAAEDAFWAWNDLGSVERSKIIYRAKELIEKNRAELENIIMEENGKPVKEAKEEVDGVIDQIQYYAEWARKLNGEVVEGTSSHRKIFQYKVPYGIVVALTPWNFPAGMVARKLAPALLTGNTVVLKPSSDTPGSAEWIVRKFVEAGVPKGVLNFITGRGSEIGDYIVEHKKVNLITMTGSTATGQRIMQKASANMAKLILELGGKAPFMVWKDADMDNALKTLLWAKYWNAGQSCIAAERLYVHEDIYDTFMSRFVELSRKLALGDPKNADMGPLINKGALQATSEIVEEAKESGAKILFGGSQPSLSGPYRNGYFFLPTIIGNADQKSKIFQEEIFAPVIGARKISSVEEMYDLANDSKYGLASYLFTKDPNIIFEASERIRFGELYVNMPGPEASQGYHTGFRMTGQAGEGSKYGISEYLKLKNIYVDYSGKPLHINTVRDDLFQSGRPVLGSSHHHHHH	–	–	–	–	–	–	–	0.2	2.89	1.0	11.92	1.0	1	1.60	1.0	1.0
F34M S405N: optimized Thermoplasma acidophilum aldehyde dehydrogenase with the mutations F34M and S405N (protein, TaALDH-F34M-S405N-Chis) MDTKLYIDGQWVNSSSGKTVDKYSPVTGQVIGRMEAATRDDVDRAIDAAEDAFWAWNDLGSVERSKIIYRAKELIEKNRAELENIIMEENGKPVKEAKEEVDGVIDQIQYYAEWARKLNGEVVEGTSSHRKIFQYKVPYGIVVALTPWNFPAGMVARKLAPALLTGNTVVLKPSSDTPGSAEWIVRKFVEAGVPKGVLNFITGRGSEIGDYIVEHKKVNLITMTGSTATGQRIMQKASANMAKLILELGGKAPFMVWKDADMDNALKTLLWAKYWNAGQSCIAAERLYVHEDIYDTFMSRFVELSRKLALGDPKNADMGPLINKGALQATSEIVEEAKESGAKILFGGSQPSLSGPYRNGYFFLPTIIGNADQKSKIFQEEIFAPVIGARKISSVEEMYDLANDNKYGLASYLFTKDPNIIFEASERIRFGELYVNMPGPEASQGYHTGFRMTGQAGEGSKYGISEYLKLKNIYVDYSGKPLHINTVRDDLFQSGRPVLGSSHHHHHH	–	–	–	–	–	–	–	1.2	25.87	9.0	74.31	6.2	0.7	15.62	9.8	1.1
